Consider one molecule from article PMC10834949 (2024).

The target of the experiment is Aβ42 fibrils Aβ42 (Homo sapiens, UniProt P05067). The experiment is described as follows: SPR. Background: In SPR one partner is held on a chip, and binding of the other changes the refractive index at the surface.
Chain of Aβ42 fibrils Aβ42 (P05067 672-713): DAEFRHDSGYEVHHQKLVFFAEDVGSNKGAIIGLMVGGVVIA

B1: BRICHOS (proSP-C) BRICHOS (protein)
chain: TATFSIGSTGLVVYDYQQLLIAYKPAPGTCCYIMKIAPESIPSLEALTRKVHNFQMECSLQAKPAVPTSKLGQAEGRDAGSAPSGGDPAFLGMAVSTLCGEVPLYYI
By Kd is commonly meant the free concentration of one partner at which half of the binding sites on the other are occupied at equilibrium, for simple one-to-one binding. A high value points to a looser complex. For B1, binding was characterised by a dissociation constant (Kd) of 12.9 nM.
